Experimental data reported in the DeepSol protein solubility set.

Assay: soluble on expression in E. coli; label from the status in PepcDB or PDB records

| Sequence | soluble on expression in E. coli |
| --- | --- |
| MTYQDRSGATAVVQSSYQLVLLTPAAIHGADPREKAEFRLSSLRGVWRYWWRTLQDEPDPEKLLAKEEEWFGGTRKMKQQSPIHLSMAGVMEGTKKENILPHRTSPTLVPALPAGGEVTVTLSVRKRHQERLAQYDWYFQYVLHLASFGQRSRRGFGAVQWIGHQWSNVGEYVESLRMVLEHIGVAGAFSFAERDCLVARRGDIQTQHPVLSAVWIGEGKESAAEVVKAFGKASHEANRYGSLGYMRGKAGKLSSTLWCTVRKIGNWYYPIVTEVRNHDPHYSEPRYEQDRNRFLEIVGVRI | not soluble |
| VHSELTAAVGWNVWNELFTCSDDQTIHKWNMLGEPEQKVSTLDAYFTDMHWYPVSSKKTQAGGTDVFAVACTDGSVKILSRTGRVEKSIEGHKGACISLRWSYDGTALATAGEDGSVKIWSRNGMLRSTLAQADSPVYSIVWAYDCDQLCYCTGSNVVIKSLSSNAKQNAWKAHDGVVLKVDWSPINHLIITGGEDCKYKVWDSFGRLLFQSGLFDYPVTSVAWAPSGELFAVGGFNTLQLCDRMGWAYSKIHLNDTGSIMTLSWTADSTQLA | not soluble |
| SLLLLQSILITKIMVIQLILFFEYALASGFEDKNILKEGKMMFDTLLKQFLEIDKVISLLYKDFVDNYIDFKNLEIVKIKKENEIENKLKSLLKSENIDYALVVAPEDEDILYNLTKIIESYPVKNLGCSSEAIKIAGNKYLTYLAIKDAVKTPKTFPPKKYVVKKIDSCGGKFNLFDENFLIQEFIDGENLSVSLIVGKKIHPLSLNRQYIDKRGFVGGEVNINHKLKDKIFNEAIKAVKCINGLNGYVGVDVIVNNDGIYIIEINPRITTTIYGLKTNPSLAELLIKNANNEELKFKVKGEKFTIDK | not soluble |
| TTQNELLNRIAELETKVAFQDNVIEELNQVLIHHQFVLDKLQTQVRHFANKFKNIQSSNVASQAEETPPPHY | not soluble |
| MGSDKIHHHHHHMEFMKQLGSCCQYCAYPLSDDTYLVCGQCVRKRPSFDSAYIAYRFEEPLRSLIHQFKYHNGLYLASFLKQLLLNALPKNALKPDCLIPVPMHPKRLKRRGFNQAGVLTRLLARQLNIPYDLYYCQKIINTASQANLDGEQRRKNLRHAFYVSAVTYEHVMIVDDLLTTGSTANEMAHTLKNAGVKRVDICCCARAVTKN | not soluble |
| MPNPPAKEDTWAFGPIGSPFPDNPVKALGQQNMYVALWYKNGRPMHGRAWNNGGVIECSFPYNKSELTGVKDLGGQIQVLQYKGNHLSLGYWYNWIKYSDRFDKMDKGAEMLRCGDSFPILWSERPGGALLGYADNKTEIARFSHDGKVDEVSGSALANMLIIARELKGGPPYCECEECKSEPPKPIVRVTLNEWADFRCGDPWPTVGTPVRALGRSLDTLPGENPDQYVALWYQSGEPVMGRIWNDGGKIAACFGWGGHEYRQKIGSIQILYELPEAIRGFDYDWKPFPEAAQFGAKEWIPVHVDHHKGNISPAVLIVDGKEILGKADIRNERATIGYGGTEKVLVGPAVHSCMVLCRKAKPGCTID | soluble |
| GMEQLQKRKIYDTTASNASTGILNGKSSNVLNWDDVRFSWAYPLYKNMLANFWTPFEINMSHDAKQFPTLTETEQEAFKKIIGLLAFLDSVQTDYSMRAAEYLTDSSLAALMSVLSFQEVVHNQSYSYVLSSLVPKATQDEIFEYWKHDDVLKERNEFIIDGYEKFVDNPTPKTFLESIVYDVILEGLNFYSGFAFFYNLARNQKMVSTSTMINYINRDEQLHVYLFTNIFKELLVEFPELNTEETKTFVKTTLMKAADLEKDWFRYIIGDKIPGINPEDMETYISFIANKRAVQLGMEKPYPEIKHNPMKWIRAYEDVNSGKSDFFEQKSRQYAKVSADNGFDEL | soluble |
| EAGMAAITAATAGNMQSQINYTRSNEKEADRFGIATLAKAGFDVQAMPRFFGRLADEYRYASKPPPMLLTHPLPEDRVADSRQRAQAYPPMRIAPSIDYHLARARIVARYAGIDGQAALGWFERTQKKASADIMPSFDYGRALVHLDNKRLSQAEPILKKLLAQDPGNPFYLDAMTDLYIEKKQPQKAVELLNSALKRNPQNKVLTINYANALLEANQNDQAVRTLQRYTHDNPEDSNGWQLLSKGYHALGRSDEELAARAEILALRANWNKAIQYYSEASKMAELGSLEQARYDARIDQLMIQRDRFMALQ | not soluble |
| MPFCPEEFYCRITQNIESLNNIAKIQHAANTDYLTDLANRRAFFRSAESRIKEYINKKVPYCLAMIDVDFFKKVNDTYGHDSGDQVLKVIALYMRKHFGAGLTARLGGEEFAVLLHGLDADYLHNKLDDFRREIAVSSIPAGDTSISITLSLGVVFDSEDELSKQMNEADNALYAAKENGRNQIVVFGAELDDLEHHHHHH | not soluble |
| MGSDKIHHHHHHMNNKYKNSYIVKEKELVSLSVYNVGFQSCDSLYQWGPGIRDHYLIHYIISGKGRYTVNGSVHTLTPGDAFLVYPNTEVIYQADAQDPWEYTWVGFTGSDAATILRATDFTKAHPYIHSVSNGNEIKRQLMHIYDARGTEFENALEMTGRLYTTLALFVSAATSKPPQNSANSYVQKGIEYISANYSYPITVEDIASYIGLSRSHLFRSFQSILGVSPKEYLTDFRIKQACYLLKHSSLSITAIAGSIGFDNSLYFSKTFHKIKGLSPKEYRSKYKKAQE | not soluble |
| MKSAWMEKTYTIDGCAFHTQHRKGSSGVTIVFEAGYGTSSETWKPLMADIDDEFGIFTYDRAGIGKSGQSRAKRTADQQVKELESLLKAADVKPPYLAVSHSYGAVITGLWACKNKHDIIGMVLLDPALGDCASFTFIPEEMHKSHTRKMMLEGTHAEFSKSLQELKKRQVHLGNMPLLVLSSGERTEKFAAEQEWQNLHSSILSLSNQSGWIQAKNSSHNIHHDEPHIVHLAIYDVWCAACQQAAPLYQAVN | not soluble |
| MGSDKIHHHHHHMSKPLNFVMISPHFPANFETFAVRLKECGFNTLGIADTPYEQLSENLRNSLTEYYRVDNMEDYEQVYRAVGYFAHKYGRIDRIESHNEYWLELDAKLRTDFNVPGYKNDDMLAIKTKAQMKEIFRQAGLKVAQGKVFNSDDEARKLAKKLKFPVIIKPNSGVGASDTYKIKSVQELEDFFSYKNAHVEYIMEEFIDGDIITFDGLTDKEGNIVFYSGLEYSECVLDTVENDNDMFYYVPREISTDLIKLGQKCVDAFNVRERFFHFEFFRVKKTGDLMPLEINCRPPGGLTIDMWNYANDFDVFREYANIVKENKFYTNITHPWNVVYISRKANKNYVNAIEDVQQKYSTNIISVQTVPGVFAKIMGEHGILARTETLDQMHEIAQFAQQKA | not soluble |
| MGSDKIHHHHHHMQLQELHMLVVLAEELNMRKAAERLFVSQPALSQRLQTIEKAWGTKIFLRSQKGLTVTPAGEKIIQFANDVTLEQERIRENIDELEGEIHGTLKLAVASIIGQHWLPKVLKTYVEKYPNAKISLITGWSSEMLKSLYEDQVHIGIIRGNPEWKGRKDYLMTDHLYLVDTEISCIEDIAHTERPFIQFKSDSTYFQEIQHWWHQKFKTSPKQTILVDQIETCKQMALHGIGYAILPSVTLQNEDKVNKMPLLDMKGHPIGRDTWLLGYEPAFELKQVQAFVQVIKDMLDQENPF | not soluble |
| MQNDNHSTAQPEKDVARLTEEVREAIAHGGDIENAIRNLTLKAMHSNGLDIESLKQIATAVMKGVQEGAQQKMTHAAEQSHAAQSQITQAVVGLDTAFAQLAGASKLALEEAASKAKQFSDSELTKAQADLKDLESVFLDTLKHTATAAQGLIAETLRDMLSHAQHNGTAVGMQLKDTLAVFAHQMASTGRAQFEAGVKLTQTTADLLYKISTGVLSGITSQTNRDDK | not soluble |
| EGPIDKLKTPEDVPNDPLPLISDFEWSTLDIDDNLQLDELYKLLYDNYVEDIDATFRFKYSHEFFQWALKPPGWRKDWHVGVRVKSTGKLVAFIAATPVTFKLNKSNKVIDSVEINFLCIHKKLRNKRLAPVLIKEITRRVNKQNIWQALYTGGSILPTPLTTCRYQHRPINWSKLHDVGFSHLPPNQTKSSMVASYTLPNNPKLKGLRPMTGKDVSTVLSLLYKYQERFDIVQLFTEEEFKHWMLGHDENSDSNVVKSYVVEDENGIITDYFSYYLLPFTVLDNAQHDELGIAYLFYYASDSFEKPNYKKRLNELITDALITSKKFGVDVFNCLTCQDNTYFLKDCKFGSGDGFLNYYLFNYRTFPMDGGIDKKTKEVVEDQTSGIGVVLL | soluble |
| MDAVQDPAAGSLSRSRIVPPQVPAEYSLRPAIRNLLDRNPHSRVLMFSAPAGFGKTCALAALARERTVADQAVAWLSLAEEDDDPARFCRQLIEALGEAVPQLGDDAQTYLQNTMRVPVVAVIESLLGDLDRYARPLLLVLDDLHLVSNPDIFTGLNRLVQYAPPGLVLALGTRSQPALSLATWRAKGLLLEIGLEELRLGFEETREYLERSGLYLDEPCLKALYGQTEGWVVGVHLVSLWLRQQPQVQEMALLDGDKQAVSAYLLAAVFERLPGDLQEALLALGVASQLSGDLANALTGRQ | not soluble |
| MSLAAVILDYNGVIGLQPTTDQWLRLARTALWPEDDLPAFQNAFWTARTAYDAGHLSDLAYWATVLGHHPGARRLRGLRDADTDMWTSIDDHVIDVLHQAHESGLPLVLLSNAPRHLSDVLDRRPWRRLMTHAFYSARLQVCKPDPAAYQHAMNATGAADPDRVLFVDDRADNCHAARHLGLRTLHYTGHPTDLAAALQPPNEGHHHHHH | soluble |
| MGSDKIHHHHHHMPLKSSYSDQLKKTDQSLIALLSDRISLLASEQPSLDEQLASVAPLLAQAGIPESVWAGVVNSCHASLTPKSAINHASPRQVTIIGGRGRMGRLFQEQLSLVGHNVSILEHEDWEYAEQLLSQAELVLVSVPIEHTVDVIKRAAKYLASNTALCDITSIKTQPTQAMLEHHCGPVMGLHPMFGPNIKSFLGQKVVVCPGRNDDSFQWLLDFLKSKGGELIVCTPEEHDRMMVIIQATQHFCRFSLGVFLAQARVEIEQSLTMSTPNYRQEIDIVKRLFAQNPNLCVDIMLATEERCNAISFLANTYSRLARLVARKDREALIKEFENTQSFFEGKINSFLQPLNTTALKRDFKPQNIGI | not soluble |
| MGSDKIHHHHHHMTQPFKDAIGICKAIMRNGYDAYVVNTQLQSEILDQDCLEIDIACEPGYVELGKIFPGLEMSGEDGVVGTLREGGTLFRFYHTDTDDSSHPEATLARVTPTMLRRLEAKGTLPASLACPFIPSSAETYQGFDDFSKGDIRFEGVPDETLRRSYVLGVRAMRIAANFDLPIEPNSWMAIVRSASRILDYVPVTEIMDEWRKVEAENMYKFVQLMFDSMLLHGLIPELAALSRIRHLRTPEAGEETVLDHTIECMRRYPEELPFDWLGTVATMFHDVGKLYAAEYYNGKWTFYQHHRIGAKVTRKILRRLHFLPEDVDLICHLVRNHMRFHFMLTDKGIRRFKALDEYPRLIEMARADIKARDGNYTHFNHNMKYLERAETPEQMLEPLLNGNEIMEFTGLKPGPYVGVIRDALLKAQVTGEVTSMEEAIEYVKTYSERAPR | not soluble |
